Residue numbers refer to the chain shown, from its start.
T1: α-fructosyl-valyl-histidyl-leucyl-threonyl-prolyl-glutamyl-glutamyl-lysine (not fully specified)
T1 chain: VHLTPEEK

B1: CFP-T7-H38-V (protein)
chain: MTSNRADTRVIVVGGGGTIGSSTALHLVRSGYAPANITVLDTFEIPSAQSAGHDLNKIMGIDHVNKVNLQMSLEARQMWKEDELFQPFFHNTGRMDCEHTPKGIEKLKKLYQKLHDAGAGLEKTHAWLDNEDEILSKMPLLQRDQIQGWKAIWSQDGGWLAAAKAINAIGQFLKERGVKFGFGGAGSFKQPLFDDEGTTCIGVETADGTKYYADKVVLAAGAWSPTLVDLEDQCCSKAWVYAHIQLTPEEAAEYKGVPVVYNGEFGFFFEPDEFGVIKVCDEFPGFSRFKEHQPYGAPSPKRISVPRSHAKHPTDTYPDASEVSIKKAIATFLPRFQDKELFNRALCWCTDTADSTLLMCEHPKWKNFILATGDSGHSFKILPNVGKYVVELIEGRLPEEMAYQWRWRPGGDALKSRRAAPPKDLADMPGWKHDPKL
B2: CFP-T7-H38-I (protein)
chain: B1 chain with V64I
B3: CFP-T7-H38-M (protein)
chain: B1 chain with V64M
B4: CFP-T7-H38-T (protein)
chain: B1 chain with V64T
B5: CFP-T7-H38-GYS (protein)
chain: B1 chain with V64G, H99S, L110Y
B6: CFP-T7-H38-GF (protein)
chain: B1 chain with V64G, L110F
B7: CFP-T7-H37 (protein)
chain: B1 chain with V64R
B8: CFP-T7-H38-A (protein)
chain: B1 chain with V64A
B9: CFP-T7-H38-GH (protein)
chain: B1 chain with V64G, L110H
B10: CFP-T7-H38-GY (protein)
chain: B1 chain with V64G, L110Y
B11: CFP-T7-H38-S (protein)
chain: B1 chain with V64S
B12: CFP-T7-H38-L (protein)
chain: B1 chain with V64L
B13: CFP-T7-H38-G (protein)
chain: B1 chain with V64G
B14: CFP-DH2 (protein)
chain: MTSNRADTRVIVVGGGGTIGSSTALHLVRSGYAPANITVLDTFPIPSAQSAGHDLNKIMGIDHRNKVNLQMSLEARQMWKEDELFQPFFHNTGRMDCEHTPKGIEKLKKLYQKLHDAGAGLEKTHAWLDNEDAILSKMPLLQRDQIQGWKAIWSQDGGWLAAAKAINAIGQFLKERGVKFGFGGAGSFKQPLFDDEGTTCIGVETADGTKYYADKVVLAAGAWSPTLVDLEDQCCSKAWVYAHIQLTPEEAAKYKGCPVVYHGEFGFFFEPDEFGVIKVCDEFPGFSRFKEHQPYGAPSPKRISVPRSHAKHPTDTYPDASEVSIKKAIATFLPRFKDKPLFNRALCWCTDTADSTLLMCEHPKWKNFILATGDSGHSFKILPNVGKYVVELIEGRLPEEMAYQWRWRPGGDALKSRRAAPPKDLADMPGWKHD
B15: CFP-DH3 (protein)
chain: B14 chain with R64G
B16: NvFX-62D/63H/106K/110L (protein)
chain: MTTPRKETTVLIIGGGGTIGSSTALHLLRAGYTPSNITVLDTYPIPSAQSAGNDLNKIMGIDHRNKVDLQLSLEARDMWRNDALFRPFFHNTGRLDCESSAEGVEKLRRLYQKLVEAGVGLEETHEWLDSEEAILEKAPLLQREEIEGWKAIWSEEGGWLAAAKAINAIGEELQRQGVRFGFGGAGSFKRPLFADDGTTCIGVETVDGTQYHADKVVLAAGAWSPALVDLEEQCCSKAWVYAHMQLTPEEAAVYKGCPVVYHGDVGFFFEPNENGVIKVCDEFPGFTRFKQHQPYGAPAPKPVSVPRSHAKHPTDTYPDASEESIKRAVSTFLPRFKDKPLFNRALCWCTDTADSALLICEHPRWKNFILATGDSGHSFKLLPIIGKHVVELVEGRLADDLAEAWRWRPGQGDARKSIRAAPAKDLADMPGWKHDQDSESR
B17: NvFX-62D/63H/106K/110L-64T (protein)
chain: B16 chain with R64T
B18: NvFX-62D/63H/106K/110L-64S (protein)
chain: B16 chain with R64S
B19: NvFX-62D/63H/106K/110L-64M (protein)
chain: B16 chain with R64M
B20: CcFX-62D/63H/102K/106K (protein)
chain: MAPSRANTSVIVVGGGGTIGSSTALHLVRSGYTPSNITVLDTYPIPSAQSAGNDLNKIMGIDHRNKVDLQLSLEARQMWREDDLFKEYFHNTGRLDCAHGEKGLAKLRQAYQALLDANAGLEETTEWLDSEDEILKKMPLLDREQIKGWKAVYSQDGGWLAAAKAINAIGEYLRAQGVKFGFGGAGSFKQPLLAEGVCIGVETVDGTRYYADKVVLAAGAWSPVLVDLEDQCVSKAWVYAHIQLTPEEAAEYKNVPVVYNGDVGFFFEPDEHGVIKVCDEFPGFTRFKQHQPYGAKAPKRISVPRSAAKHPTDTYPDASEKSIRKAIATFLPKFTEKELFNRHLCWCTDTADAALLMCEHPEWKNFVLATGDSGHTFKLLPNIGKHVVELLEGTLAEDLAHAWRWRPGTGDALKSRRAAPAKDLADMPGWKHDDVVKSKL
B21: CcFX-62D/63H/102K/106K-64T (protein)
chain: B20 chain with R64T
B22: CcFX-62D/63H/102K/106K-64L (protein)
chain: B20 chain with R64L
B23: PnFX-62D/63H/106K/110L/113K/351S (protein)
chain: MAPSRANTSVIVVGGGGTIGSSTALHLVRSGYTPSNVTVLDAYPIPSSQSAGNDLNKIMGVDHRNPVDLQLALEARQMWNEDELFKKFFHNTGRLDCAHGEKDIAKLKSLYQKLVDAGLDATNEWLDSEDEILKRMPLLSRDQIKGWKAIFSKDGGWLAAAKAINAVGEYLRDQGVRFGFYGAGSFKAPLLAEGVCIGVETVDGTRYYADKVVLAAGAWSPTLVELHEQCVSKAWVYGHIQLTPEEAARYKNSPVVYNGDVGFFFEPNEHGVIKVCDEFPGFTRFKMHQPFGAKAPKRISVPRSHAKHPTDTIPDASDVSIRRAIATFMPQFKNKKMFNQAMCWCTDTADSALLICEHPEWKNFVLATGDSGHSFKLLPNIGKHVVELLEGTLADDLAHAWRWRPGSGDALKSRRSAPAKDLADMPGWNHDKPRANL
B24: PnFX-62D/63H/106K/110L/113K/351S-64S (protein)
chain: B23 chain with R64S

Target: T1, α-fructosyl-valyl-histidyl-leucyl-threon …

Q: Which Specific activity (mU/mg), 10 µM αF8P does the source give for B1 here?
A: 86 mU/mg

Q: Which Specific activity (mU/mg), 10 µM αF8P does the source give for B2 here?
A: 78.7 mU/mg

Q: Which Specific activity (mU/mg), 10 µM αF8P does the source give for B3 here?
A: 84.4 mU/mg

Q: For B4, which Specific activity (mU/mg), 10 µM αF8P is on record?
A: 78.7 mU/mg

Q: How did the Specific activity (mU/mg), 10 µM αF8P turn out when B5 was run?
A: 196 mU/mg

Q: Which Specific activity (mU/mg), 10 µM αF8P does the source give for B6 here?
A: 145 mU/mg

Q: B7 was tested. Which Specific activity (U/mg), 1 mM αF8P did it give?
A: 4.18 U/mg

Q: What about the Specific activity (mU/mg), 10 µM αF8P of the same protein?
A: 44.4 mU/mg

Q: How did the Specific activity (U/mg), 1 mM αF8P turn out when B8 was run?
A: 3.26 U/mg

Q: B9 was tested. Which Specific activity (mU/mg), 10 µM αF8P did it give?
A: 143 mU/mg

Q: B10 was tested. Which Specific activity (mU/mg), 10 µM αF8P did it give?
A: 174 mU/mg

Q: B11 was tested. Which Specific activity (mU/mg), 10 µM αF8P did it give?
A: 89.7 mU/mg

Q: How did the Specific activity (mU/mg), 10 µM αF8P turn out when B12 was run?
A: 84.3 mU/mg

Q: How did the Specific activity (U/mg), 1 mM αF8P turn out when B13 was run?
A: 6.33 U/mg

Q: What about the Specific activity (mU/mg), 10 µM αF8P of the same protein?
A: 95.9 mU/mg

Q: And the “fold improvement of specific activity on αF8P against CFP-T7-H37” value?
A: by 1.51 to 1.75 times

Q: Which Specific activity (U/mg), 1 mM αF8P does the source give for B14 here?
A: 2.8 U/mg

Q: Which results are given for B15?
A: Specific activity (U/mg), 1 mM αF8P: 4.9 U/mg; fold improvement of specific activity on αF8P against CFP-DH2: by 1.51 to 1.75 times

Q: How did the Specific activity (mU/mg), 10 µM αF8P turn out when B16 was run?
A: 0.3 mU/mg

Q: Which Specific activity (mU/mg), 10 µM αF8P does the source give for B17 here?
A: 0.38 mU/mg

Q: For B18, which Specific activity (mU/mg), 10 µM αF8P is on record?
A: 0.37 mU/mg

Q: B19 was tested. Which Specific activity (mU/mg), 10 µM αF8P did it give?
A: 0.42 mU/mg

Q: For B20, which Specific activity (mU/mg), 10 µM αF8P is on record?
A: 1.3 mU/mg

Q: How did the Specific activity (mU/mg), 10 µM αF8P turn out when B21 was run?
A: 1.5 mU/mg

Q: With B22 as the protein, how does the Specific activity (mU/mg), 10 µM αF8P read?
A: 2 mU/mg

Q: Which Specific activity (mU/mg), 10 µM αF8P does the source give for B23 here?
A: 2 mU/mg

Q: How did the Specific activity (mU/mg), 10 µM αF8P turn out when B24 was run?
A: 2.2 mU/mg
